Data on 1 protein can be found in paper PMC9329959, “A Feedback Regulatory Loop Involving dTrbd/dTak1 in Controlling IMD Signaling in Drosophila Melanogaster” (Frontiers in Immunology, 2022).

This series concerns the molecule itself. The series is described as follows: SDD-AGE; purified proteins loaded in 0.5 x TBE, 10% glycerol, 2% SDS at room temperature; 1.5% agarose gel with 0.1% SDS; immunoblot.

B1: GST-tagged dTrbd^FL (enzyme, Drosophila melanogaster, UniProt Q9VH90 1-778, looked up)
chain: MCDTKDDAQKWKCETCTYENYPSSLKCTMCQASKPLLNEDIFRLSPAQESCTVAEEAAAVEVAVMSPTPSSTCYSLQPQSQARQSNVADSEKWPCKVCTYLNWPRSLRCVQCCTKRGGEAIERGKKDMDNEADGDRAGEALQALRISGSEENLANKPVQLIGATASHRLSLSRGIDDATHLNNLANASHNQSQSQHRQPVLQQQMQLQLQPQQQRESSSSAAVPPQQQKQCYVSKWACNSCTYENWPRSIKCSMCGKTREREISGSQNDLHASSSLNSQEENQQQLQQPNVDTVSVNNSFNKKHIYQLGSSETINNCDTLQERQERRQRQIRRQVDWQWLNACLGVVENNYSAVEAYLSCGGNPARSLTSTEIAALNRNSAFDVGHTLIHLAIRFHREEMLPMLLDQISGSGPGIKRVPSYVAPDLAADIRRHFANTLRLRKSGLPCHYVQKHATFALPAEIEELPIPIQEQLYDELLDRDAQKQLETPPPALNWSLEITARLSSRMFVLWNRSAGDCLLDSAMQATWGVFDRDNILRRALADTLHQCGHVFFTRWKEYEMLQASMLHFTLEDSQFEEDWSTLLSLAGQPGSSLEQLHIFALAHILRRPIIVYGVKYVKSFRGEDIGYARFEGVYLPLFWDQNFCTKSPIALGYTRGHFSALVPMEPFTRIDGRRDDVEDVTYLPLMDCELKLLPIHFLTQSEVGNEESMMRQWLDVCVTDGGLLVAQQKLSKRPLLVAQMLEEWLNHYRRIAQVITAPFIRRPQITHYSSDGDSDEE
notes: dTrbd, Drosophila deubiquitinase, full length; also called GST-dTrbd^FL; source: E. coli BL21, purified (Glutathione Sepharose 4B)
Turning to B1, the binding result is given as “binds”.
